Laboratory results: paper doi:10.1101/565937

What was measured:
Experiment in all cases: EMSA
AUF1p37 = AUF1p37 (Homo sapiens, UniProt Q14103-4 1-287)
HuR [1] = biological target: T1, HuR (UniProt Q15717 1-326)
HuR [2] = biological target: T1, HuR; remark: listed apart in the source

T1 sequence (Q15717 whole entry): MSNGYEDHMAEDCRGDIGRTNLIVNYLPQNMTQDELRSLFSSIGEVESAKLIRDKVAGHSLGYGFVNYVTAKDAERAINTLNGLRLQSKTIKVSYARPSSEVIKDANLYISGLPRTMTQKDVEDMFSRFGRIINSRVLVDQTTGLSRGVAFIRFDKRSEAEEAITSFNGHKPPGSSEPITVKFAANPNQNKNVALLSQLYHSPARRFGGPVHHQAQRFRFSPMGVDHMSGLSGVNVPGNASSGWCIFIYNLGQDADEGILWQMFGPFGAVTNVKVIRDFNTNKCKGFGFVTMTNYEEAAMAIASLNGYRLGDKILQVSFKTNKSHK

Binder	Kd (AUF1p37) [nM]	binding result (HuR [1])	Kd (HuR [2]) [nM]
AAAAACUUAUUUAUACUGUU (ssRNA) [Nrf2 3'-UTR Site 2]	25 ± 4	no binding	
AAAAAAAUUUUAAGAGCUGG (ssRNA) [Nrf2 3'-UTR Site 3]	670 ± 82		75 ± 20
GCUAGUUUUUUUGUACUAUU (ssRNA) [Nrf2 3'-UTR Site 1]	6 ± 2		20 ± 5
